Data on 1 molecule can be found in publication PMC10384657.

For this assay, the target named is MPER25c (spike S2 membrane proximal region peptide) MPER (Severe acute respiratory syndrome coronavirus 2), P0DTC2. In words: SPR. Conditions: modification not given.

B1: PN19 (spike S2 internal fusion peptide) (peptide)
chain: FGAGAALQIPFAMQMAYRF
One may read the Kd as the constant that tells how readily two partners part at equilibrium. B1 displayed a Kd of 9.44 nM.
